Assay results taken from the supplement of paper PMC10567573.

B1: MNAT1 (parent)
chain: SLREYNDFLEEVEEIVFNLTNNVD
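Note: lentivirally expressed fusions sorted by FACS into six bins by GFP to DsRed ratio, PSI derived from sequencing read proportions per bin multiplied by bin number.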

Variants of: B1
Assay: protein stability index of a GFP-peptide fusion (GPS, HEK-293T) (PSI 1-6); higher = more stable
Details: c terminus: a fixed tail appended
SLREYNDFLEEVEEIVWNLTNNVD gave a protein stability index of 1.95. With SLREYNDFLEEVEEIVANLTNNVD the protein stability index was 2.46. With SLREYNDFLEEVEEIVYNLTNNVD the protein stability index was 1.91. SLREYNDFLEEVEEIVMNLTNNVD showed a protein stability index of 2.57. With SLREYNDFLEEVEEIVGNLTNNVD the protein stability index was 3.4. In the case of SLREYNDFLEEVEEIVENLTNNVD, the protein stability index is reported as 3.34. In the case of SLREYNDFLEEVEEIVKNLTNNVD, the protein stability index is reported as 2.38. For SLREYNDFLEEVEEIVPNLTNNVD, the protein stability index was 4. SLREYNDFLEEVEEIVRNLTNNVD gave a protein stability index of 2.2. For SLREYNDFLEEVEEIVTNLTNNVD, the protein stability index was 3.16. With SLREYNDFLEEVEEIVSNLTNNVD the protein stability index was 3.11. With SLREYNDFLEEVEEIVVNLTNNVD the protein stability index was 2.82. With SLREYNDFLEEVEEIVLNLTNNVD the protein stability index was 2.19. In the case of SLREYNDFLEEVEEIVNNLTNNVD, the protein stability index is reported as 2.16. In the case of SLREYNDFLEEVEEIVCNLTNNVD, the protein stability index is reported as 2.88. With SLREYNDFLEEVEEIVQNLTNNVD the protein stability index was 2.78. Work on SLREYNDFLEEVEEIVDNLTNNVD yielded a protein stability index of 3.2. Variant SLREYNDFLEEVEEIVHNLTNNVD has a protein stability index of 3.15. SLREYNDFLEEVEEIVFNLTCNVD showed a protein stability index of 1.48. SLREYNDFLEEVEEIVFNLTENVD showed a protein stability index of 2.51. For SLREYNDFLEEVEEIVFNLTANVD, the protein stability index was 1.42. In the case of SLREYNDFLEEVEEIVFNLTDNVD, the protein stability index is reported as 3. SLREYNDFLEEVEEIVFNLTHNVD gave a protein stability index of 1.76. Variant SLREYNDFLEEVEEIVFNLTGNVD has a protein stability index of 2.58. Work on SLREYNDFLEEVEFIVFNLTNNVD yielded a protein stability index of 2.82. SLREYNDFLEEVENIVFNLTNNVD gave a protein stability index of 2.11. SLREYNDFLEEVESIVFNLTNNVD showed a protein stability index of 2.26. Work on SLREYNDFLEEVEVIVFNLTNNVD yielded a protein stability index of 1.61. SLREYNDFLEEVEQIVFNLTNNVD gave a protein stability index of 2.46. Work on SLREYNDFLEEVEDIVFNLTNNVD yielded a protein stability index of 2.88. With SLREYNDFLEEVEHIVFNLTNNVD the protein stability index was 2.19. SLREYNDFLEEVEPIVFNLTNNVD showed a protein stability index of 3.38. SLREYNDFLEEVELIVFNLTNNVD gave a protein stability index of 2.12. SLREYNDFLEEVEWIVFNLTNNVD gave a protein stability index of 1.75. Variant SLREYNDFLEEVEKIVFNLTNNVD has a protein stability index of 1.87. Work on SLREYNDFLEEVEGIVFNLTNNVD yielded a protein stability index of 2.34. Variant SLREYNDFLEEVEYIVFNLTNNVD has a protein stability index of 2.6. Variant SLREYNDFLEEVEAIVFNLTNNVD has a protein stability index of 1.82. SLREYNDFLEEVETIVFNLTNNVD showed a protein stability index of 1.87. SLREYNDFLEEVERIVFNLTNNVD gave a protein stability index of 2.15. Variant SLREYNDFLEEVEMIVFNLTNNVD has a protein stability index of 2.22. SLREYNDFLEEVECIVFNLTNNVD showed a protein stability index of 2.24. SLREYNDFLEEVEEIVFNLLNNVD gave a protein stability index of 2.75. SLREYNDFLEEVEEIVFNLMNNVD gave a protein stability index of 1.86. Work on SLREYNDFLEEVEEIVFNLYNNVD yielded a protein stability index of 1.5. SLREYNDFLEEVEEIVFNLDNNVD gave a protein stability index of 3.91. Variant SLREYNDFLEEVEEIVFNLINNVD has a protein stability index of 1.41. SLREYNDFLEEVEEIVFNLCNNVD showed a protein stability index of 2.31. SLREYNDFLEEVEEIVFNLKNNVD showed a protein stability index of 2.41. With SLREYNDFLEEVEEIVFNLSNNVD the protein stability index was 3.05. SLREYNDFLEEVEEIVFNLFNNVD gave a protein stability index of 1.5. SLREYNDFLEEVEEIVFNLANNVD showed a protein stability index of 1.07. In the case of SLREYNDFLEEVEEIVFNLPNNVD, the protein stability index is reported as 3.19. For SLREYNDFLEEVEEIVFNLENNVD, the protein stability index was 2.51. Variant SLREYNDFLEEVEEIVFNLHNNVD has a protein stability index of 2.25. Variant SLREYNDFLEEVEEIVFNLRNNVD has a protein stability index of 2.46. Variant SLREYNDFLEEVEEIVFNLQNNVD has a protein stability index of 2.37. With SLREYNDFLEEVEEIVFNLWNNVD the protein stability index was 2. Work on SLREYNDFLEEVEEIVFNLNNNVD yielded a protein stability index of 2.56. For SLREYNDFLEEVEEIVFNLGNNVD, the protein stability index was 2.31. In the case of SLREYNDFLEEVEEIVFNLVNNVD, the protein stability index is reported as 1.33. With SLREYNDFLEEVHEIVFNLTNNVD the protein stability index was 2.15. In the case of SLREYNDFLEEVNEIVFNLTNNVD, the protein stability index is reported as 2.37. Variant SLREYNDFLEEVSEIVFNLTNNVD has a protein stability index of 1.74. SLREYNDFLEEVMEIVFNLTNNVD showed a protein stability index of 2.94. SLREYNDFLEEVCEIVFNLTNNVD gave a protein stability index of 2.34. SLREYNDFLEEVREIVFNLTNNVD showed a protein stability index of 1.87. With SLREYNDFLEEVLEIVFNLTNNVD the protein stability index was 2.5. With SLREYNDFLEEVVEIVFNLTNNVD the protein stability index was 2.87. SLREYNDFLEEVPEIVFNLTNNVD showed a protein stability index of 3.69. With SLREYNDFLEEVIEIVFNLTNNVD the protein stability index was 2.58. Variant SLREYNDFLEEVWEIVFNLTNNVD has a protein stability index of 2.52. SLREYNDFLEEVYEIVFNLTNNVD gave a protein stability index of 1.63. In the case of SLREYNDFLEEVFEIVFNLTNNVD, the protein stability index is reported as 2.27. For SLREYNDFLEEVAEIVFNLTNNVD, the protein stability index was 1.77. SLREYNDFLEEVTEIVFNLTNNVD gave a protein stability index of 1.58. Variant SLREYNDFLEEVDEIVFNLTNNVD has a protein stability index of 2.87. Work on SLREYNDFLEEVGEIVFNLTNNVD yielded a protein stability index of 2.43. In the case of SLREYNDFLEEVQEIVFNLTNNVD, the protein stability index is reported as 1.93. SLREYNDFLEEVKEIVFNLTNNVD showed a protein stability index of 2.69. SLREYNDFLEESEEIVFNLTNNVD gave a protein stability index of 4.5. SLREYNDFLEEKEEIVFNLTNNVD showed a protein stability index of 4.72. Variant SLREYNDFLEEYEEIVFNLTNNVD has a protein stability index of 3.04. SLREYNDFLEEEEEIVFNLTNNVD gave a protein stability index of 4.49. Work on SLREYNDFLEEPEEIVFNLTNNVD yielded a protein stability index of 3.91. Work on SLREYNDFLEELEEIVFNLTNNVD yielded a protein stability index of 1.09. With SLREYNDFLEEGEEIVFNLTNNVD the protein stability index was 4.16. Variant SLREYNDFLEETEEIVFNLTNNVD has a protein stability index of 3.48. Variant SLREYNDFLEENEEIVFNLTNNVD has a protein stability index of 4.83. In the case of SLREYNDFLEEFEEIVFNLTNNVD, the protein stability index is reported as 1.86. Variant SLREYNDFLEEDEEIVFNLTNNVD has a protein stability index of 4.97. Variant SLREYNDFLEEAEEIVFNLTNNVD has a protein stability index of 3.22. In the case of SLREYNDFLEEWEEIVFNLTNNVD, the protein stability index is reported as 1.87. With SLREYNDFLEEHEEIVFNLTNNVD the protein stability index was 3.48.
